Data reported in publication doi:10.1101/2022.05.05.490751.

Columns and labels:
Test in all cases: SPR
[1] = target: NYE 9V peptide (NYE-ESO157-165, heteroclitic 9V variant) on HLA-A*02:01
[2] = target: NYE 3A peptide on HLA-A*02:01
[3] = target: NYE 4D peptide on HLA-A*02:01
[4] = target: NYE 6T peptide on HLA-A*02:01
[5] = target: NYE 4E5E8E peptide on HLA-A*02:01
[6] = target: NYE 3Y peptide on HLA-A*02:01
[7] = target: NYE 6V peptide on HLA-A*02:01

Kd [1]: 8 µM
Kd [2]: 7 µM
Kd [3]: 139 µM
Kd [4]: 161 µM
Kd [5]: 18 µM
Kd [6]: 55 µM
Kd [7]: 17 µM
Substance: Soluble 1G4 TCR
